Assay results as given in PMC9491710 (Science Advances, 2022).

Columns and labels:
cryo-EM structure = biological target: the molecule itself; test: cryo-EM structure
crystal structure [1] = biological target: the molecule itself; test: crystal structure
crystal structure [2] = biological target: the molecule itself; test: crystal structure; remark: listed apart in the source
crystal structure [3] = biological target: the molecule itself; test: crystal structure; remark: listed apart in the source

B1: K3DAK4 bimodule core (KS3-DH3-ACP-KS4 fragment of BBR47_39880, amino acids 532 to 2220) (domain or fragment, UniProt C0ZGQ6 532-2220, looked up)
chain: SPSSVVRDVAIIGLSGRYPQAKNVDEFWNRLKEGKNCISEIPKDRWDWQSFFDEEKGKKESMYTKWGGFIDDMDKFDPLFFQISPKEAEEMDPQERLFLQEAYASIEDAGYTPTTLCESRKVGVFVGVMNGNYPTGATYWSIANRLSYLLNFQGPSVAVDTACSASLTAIHFALESLYSGTSECAIAGGVNLIVDPVHYMKLSALTMLSPSNQCKSFGDQADGFVDGEGVGAIVLKPLDKAIADGDHIYGVIKGSMMNAGGKTNGYTVPNPQAQAQLVADALQRANVHARTVSYLEAHGTGTELGDPIEVAGLTRAFEKDTQDKQFCALGSAKSNIGHCESAAGIAGVTKILLQLKHAQLVPSLHSRTLNPNIDFTKTPFVVQQELAEWRRPIVEINGTTNEYPRIAGISSFGAGGSNAHVIIEEYIPEEQKQSSLKITPQNPAIFVLSAKNAERLYEIVQQLLAFIQEHSLSDEHLADMAYTLQVGRVAMEERIAVIAGTMKELQQKLTAYVKGQEHIADLYRGQVNRNQEMLDILTSDDELEETIARWMERGKYSKLLDLWVKGLSIDWNKLYQEEQPGRISLPTYPFAKESYWTHARSVSSSTGVGVIHPFLHQNTSDFMEQRFSSMFTGQEFFLSDHVIKGQRVLPSAAYLEMARAAIQQATGGLDSERELEGLRFKNVVWTQPLAVGPEPVQAHIELYPEANGEIVFEIYSDSKQDRDQTTEIVHSQGSAVLCSIPDIPSFDLSVLQEQCSLRTLSAEQCYDAFKKMGVDYGPAHRGIEQILIGQEQVLAKLSLPSSVVKTQGQFGLHPSLLDAALQSSLGLMMATSDFSLILPFALEEMVIVGDCSSSMWALIRYREGSKAGDRVEKFDIDLCDENGNVQVRMKGFSTRKIANVSVRSEVEVPKASVPLEEEKAIDSSSLMEQATPYFKKLLSSVIKLPANKMEADASLEKYGVDSIVAMQMTKELEKQFGSLPKTLFFEYQTIKELTGYFLENYRENLMHILGMRENAEASLTQESEATMVDEVKAQTERRSKKRKSQRFASLRMETQPPKGALDIAIIGISGRYPQARNIHDFWKNLRDGKDCITEIPKDRWDHSLYFDEAKDKLGKSYSKWGGFIDGVDQFDPLFFHISPREAELMDPQERLFLQCVYETIEDAGYTRETLGKHEGLGGNVGVYVGVMYEEYQLYASAEQALGRALAIAGSPASIANRVSYFCNFHGPSMAVDTMCSSSLTGIHLACHSLQRGECEVAIAGGVNVSIHPNKYLYLSQGKFASSKGRCESFGEGGDGYVPGEGVGAVLLKPLARAIADGDHIYGVIKGSAINHGGKTNGYTVPNPHSQSRVIRRAFEEAGIHPRTVSYIEAHGTGTSLGDPIEIAGLTKTFQEYTKENQFCAIGSAKSNIGHGESAAGIAGLTKILLQMKYKRLVPSLHSRTLNPNIDFSKTPFVVQQELAEWKRPVIEIDGVTREYARIAGISSFGAGGANAHLVIEEYIEAEHRPPSSISSKNPAVIVLSAKNKDRLREQVQRLLSAIREQVLTDNDLAEIAYTLQVGREAMEERFAVIVKSISELEAKLTYYLKDEADSPDLFTGQVKRNKETMDVFAADEDLQQAIDTWITKGKYAKILQMWVQGLIFDWNKLYGDTKPRRISLPAYPFARERYWLPKVESQAIGLTAGEPAYLHPL
stoichiometry N (cryo-EM structure): 2

B2: isolated KS3 domain (amino acids 532 to 1135 of BBR47_39880) (domain or fragment, UniProt C0ZGQ6 532-1135, looked up)
chain: SPSSVVRDVAIIGLSGRYPQAKNVDEFWNRLKEGKNCISEIPKDRWDWQSFFDEEKGKKESMYTKWGGFIDDMDKFDPLFFQISPKEAEEMDPQERLFLQEAYASIEDAGYTPTTLCESRKVGVFVGVMNGNYPTGATYWSIANRLSYLLNFQGPSVAVDTACSASLTAIHFALESLYSGTSECAIAGGVNLIVDPVHYMKLSALTMLSPSNQCKSFGDQADGFVDGEGVGAIVLKPLDKAIADGDHIYGVIKGSMMNAGGKTNGYTVPNPQAQAQLVADALQRANVHARTVSYLEAHGTGTELGDPIEVAGLTRAFEKDTQDKQFCALGSAKSNIGHCESAAGIAGVTKILLQLKHAQLVPSLHSRTLNPNIDFTKTPFVVQQELAEWRRPIVEINGTTNEYPRIAGISSFGAGGSNAHVIIEEYIPEEQKQSSLKITPQNPAIFVLSAKNAERLYEIVQQLLAFIQEHSLSDEHLADMAYTLQVGRVAMEERIAVIAGTMKELQQKLTAYVKGQEHIADLYRGQVNRNQEMLDILTSDDELEETIARWMERGKYSKLLDLWVKGLSIDWNKLYQEEQPGRISLPTYPFAKESYWTHARSVSS
stoichiometry N (crystal structure [1]): 2

B3: isolated KS4 domain (amino acids 1587 to 2220 of BBR47_39880) (domain or fragment, UniProt C0ZGQ6 1587-2220, looked up)
chain: PPKGALDIAIIGISGRYPQARNIHDFWKNLRDGKDCITEIPKDRWDHSLYFDEAKDKLGKSYSKWGGFIDGVDQFDPLFFHISPREAELMDPQERLFLQCVYETIEDAGYTRETLGKHEGLGGNVGVYVGVMYEEYQLYASAEQALGRALAIAGSPASIANRVSYFCNFHGPSMAVDTMCSSSLTGIHLACHSLQRGECEVAIAGGVNVSIHPNKYLYLSQGKFASSKGRCESFGEGGDGYVPGEGVGAVLLKPLARAIADGDHIYGVIKGSAINHGGKTNGYTVPNPHSQSRVIRRAFEEAGIHPRTVSYIEAHGTGTSLGDPIEIAGLTKTFQEYTKENQFCAIGSAKSNIGHGESAAGIAGLTKILLQMKYKRLVPSLHSRTLNPNIDFSKTPFVVQQELAEWKRPVIEIDGVTREYARIAGISSFGAGGANAHLVIEEYIEAEHRPPSSISSKNPAVIVLSAKNKDRLREQVQRLLSAIREQVLTDNDLAEIAYTLQVGREAMEERFAVIVKSISELEAKLTYYLKDEADSPDLFTGQVKRNKETMDVFAADEDLQQAIDTWITKGKYAKILQMWVQGLIFDWNKLYGDTKPRRISLPAYPFARERYWLPKVESQAIGLTAGEPAYLHPL
stoichiometry N (crystal structure [2]): 2

B4: isolated DH3 domain (amino acids 1135 to 1434 of BBR47_39880) (domain or fragment, UniProt C0ZGQ6 1135-1434, looked up)
chain: SSTGVGVIHPFLHQNTSDFMEQRFSSMFTGQEFFLSDHVIKGQRVLPSAAYLEMARAAIQQATGGLDSERELEGLRFKNVVWTQPLAVGPEPVQAHIELYPEANGEIVFEIYSDSKQDRDQTTEIVHSQGSAVLCSIPDIPSFDLSVLQEQCSLRTLSAEQCYDAFKKMGVDYGPAHRGIEQILIGQEQVLAKLSLPSSVVKTQGQFGLHPSLLDAALQSSLGLMMATSDFSLILPFALEEMVIVGDCSSSMWALIRYREGSKAGDRVEKFDIDLCDENGNVQVRMKGFSTRKIANVSVR
stoichiometry N (crystal structure [3]): 2
